Results published in US20230124851A1 (INHIBRX LNC, published 2023).
Changes are numbered by the printed parent chain. One block for each binder: values may come before it.

Key:
[1] = biological target: T1, CD3 on the surface of human T cells (human, UniProt P07766 23-207); assay: flow cytometry on primary human T cells, anti-human Fc secondary
T1 construct: whole, on cells; Part of the CD3/TCR complex on cells; also called CD3 epsilon
Procedure: (§1) Binding of exemplary multispecific constructs containing an antigen-binding domain directed against B7H3 were assessed for binding to B7H3 positive A375 tumor cells or primary T-cells. The constructs were generated containing antigen-binding domain(s) that were either sdAbs or a FABs, and that were positioned either only N-terminal to the Fc or both N-terminal to the Fc and C-terminal to the anti-CD3 binding domain (see FIGS. 30A and 30C and Table E5). Among the various formats of constructs tested included: sdAb-Fc-dsFV-sdAb (cx3072, cx5952) sdAb-Fc-FV (cx6079), sdAb-Fc-dsFV (cs6080, cx6081), MAB-FV (cx5067) and MAB-dsFV (cx6083, cx6084), where the FV represents the anti-CD3 binding domain composed of VH and VL domain pairs and “ds” notes disulfide stabilized via an engineered interdomain disulfide bond.
(§2) Binding was assessed as described above via flow cytometry using a fluorophore-conjugated anti-human Fc secondary antibody. cx3072 bound to A375 cells with high affinity (FIG. 31A) but not to isolated T-cells (FIG. 31B). […] The B7H3 -targeting sdAb containing constructs (cx5952, cx6079, cx6080, and cx6081) bound to B7H3 positive cells with similar affinities (depicted in FIG. 31E), with cx5952 displaying higher maximal binding. cx6079, cx6080 and cx6081 contain two identical B7H3-targeting sdAbs, whereas cx5952, and cx3072 contain two distinct B7H3-targeting sdAb that bind different epitopes. The MAB-FV, cx5067, contains two identical B7H3-targeting FAB domains.

[2] = biological target: T2, human B7H3 (CD276) on the cell surface (human, UniProt Q5ZPR3 29-534); assay: flow cytometry on A375 cells (B7H3+), anti-human Fc secondary
T2 construct: B7H3 on A375 and other B7H3-positive or transfected cells
T2 sequence: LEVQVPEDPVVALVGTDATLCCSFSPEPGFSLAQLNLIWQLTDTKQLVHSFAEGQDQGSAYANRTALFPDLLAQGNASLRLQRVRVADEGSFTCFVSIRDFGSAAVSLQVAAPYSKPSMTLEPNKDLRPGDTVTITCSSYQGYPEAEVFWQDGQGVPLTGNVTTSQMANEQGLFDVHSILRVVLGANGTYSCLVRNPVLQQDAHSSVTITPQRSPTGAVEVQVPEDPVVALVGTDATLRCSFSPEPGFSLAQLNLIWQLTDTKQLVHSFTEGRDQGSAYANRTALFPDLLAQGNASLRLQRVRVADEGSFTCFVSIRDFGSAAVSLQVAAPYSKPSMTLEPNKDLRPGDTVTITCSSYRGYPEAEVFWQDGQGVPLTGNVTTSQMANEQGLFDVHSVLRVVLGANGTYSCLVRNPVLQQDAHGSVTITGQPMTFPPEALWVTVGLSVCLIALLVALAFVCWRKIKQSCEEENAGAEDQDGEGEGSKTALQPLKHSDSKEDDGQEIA
Procedure: as §1, §2

T1 sequence (P07766 23-207): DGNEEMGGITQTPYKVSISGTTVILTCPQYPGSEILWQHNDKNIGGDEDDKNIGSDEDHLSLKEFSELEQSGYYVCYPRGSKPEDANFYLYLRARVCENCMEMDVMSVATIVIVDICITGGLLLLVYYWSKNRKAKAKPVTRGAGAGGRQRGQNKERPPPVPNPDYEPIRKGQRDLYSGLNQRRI

binding result [1]: no binding
binding result [2]: binds
B1: cx6079 (bispecific antibody)
chain 1: EVQLVESGGGEVQPGGSLRLSCAASGFSFSSNVMMWVRQAPGKGLEWVSTIYSSGTGTFYAESVKGRFTISRDNAKNTLYLQMSSLRPEDTAVYYCATSGPVRGWGPRSQGTLVTVKPPGGGGDKTHTCPPCPAPPVAGPSVFLFPPKPKDTLMISRTPEVTCVVVDVKHEDPEVKFNWYVDGVEVHNAKTKPREEEYNSTYRVVSVLTVLHQDWLNGKEYKCKVSNKALPAPIEKTISKAKGQPREPQVYTLPPSREEMTKNQVSLTCDVSGFYPSDIAVEWESDGQPENNYKTTPPVLDSDGSFFLYSKLTVDKSRWEQGDVFSCSVMHEALHNHYTQKSLSLSPGKGGGGSGGGGSGGGGSEVQLVESGGGLVQPGGSLRLSCAASGFTFSTYAMNWVRQAPGKGLEWVGRIRSKYNNYATYYADSVKGRFTISRDDSKNTLYLQMNSLRAEDTAVYYCVRHGNFGDSYVSWFAYWGQGTLVTVSS
chain 2: EVQLVESGGGEVQPGGSLRLSCAASGFSFSSNVMMWVRQAPGKGLEWVSTIYSSGTGTFYAESVKGRFTISRDNAKNTLYLQMSSLRPEDTAVYYCATSGPVRGWGPRSQGTLVTVKPPGGGGDKTHTCPPCPAPPVAGPSVFLFPPKPKDTLMISRTPEVTCVVVDVKHEDPEVKFNWYVDGVEVHNAKTKPREEQYNSTYRVVSVLTVLHQDWLNGKEYKCKVSNKALPAPIEKTISKAKGQPREPQVYTLPPSREQMTKNQVKLTCLVKGFYPSDIAVEWESNGQPENNYKTTPPVLDSDGSFFLYSKLTVDKSRWQQGNVFSCSVMHEALHNHYTQKSLSLSPGKGGGGSGGGGSGGGGSQAVVTQEPSLTVSPGGTVTLTCGSSTGAVTTSNYANWVQQKPGKSPRGLIGGTNKRAPGVPARFSGSLLGGKAALTISGAQPEDEADYYCALWYSNHWVFGGGTKLTVL
notes: also called sdAb-Fc-FV

binding result [1]: no binding
binding result [2]: binds
B2: cx6081 (bispecific antibody)
chain 1: B1 chain 1 with S394N, G408C, G413A, S441A, N450S, D470N, S488K, S489P
chain 2: B1 chain 2 with K408Q, S409A, P410F, G466C, T471E, V472I, L473K
notes: also called sdAb-Fc-dsFV

binding result [1]: no binding
binding result [2]: binds
B3: cx6080 (bispecific antibody)
chain 1: B1 chain 1 with G408C
chain 2: B1 chain 2 with G466C
notes: also called cs6080; sdAb-Fc-dsFV
